The values below are quoted from earlier work in publication doi:10.1101/2022.07.01.498456.

One may read the pKa as the negative logarithm of the acid dissociation constant.

One data set deals with Asp52 (UniProt position 70, TDGSTDYGILQ). As to the kind of experiment: other. The following applies: native HEWL, ligand-free (inferred; not explicitly stated).
For a further data set, the target named is Glu35 (UniProt position 53, CAAKFESNFNT). As to the kind of experiment: other. The conditions noted are these: native HEWL, ligand-free (inferred; not explicitly stated).

Consider “Hen egg-white lysozyme (lysozyme C) (Gallus gallus)”, for which the pKa with Asp52 was 3.6; with Glu35, 6.2.
